# Experimental data published in patent US20260116983A1 (University of California, published 2026).
# T1: cynomolgus uPAR (recombinant) (cynomolgus monkey, UniProt Q9GK78 23-303, limits assumed)
# T1 construct: also called cyno uPAR; AF647-cyno uPAR
# T1 sequence (looked up): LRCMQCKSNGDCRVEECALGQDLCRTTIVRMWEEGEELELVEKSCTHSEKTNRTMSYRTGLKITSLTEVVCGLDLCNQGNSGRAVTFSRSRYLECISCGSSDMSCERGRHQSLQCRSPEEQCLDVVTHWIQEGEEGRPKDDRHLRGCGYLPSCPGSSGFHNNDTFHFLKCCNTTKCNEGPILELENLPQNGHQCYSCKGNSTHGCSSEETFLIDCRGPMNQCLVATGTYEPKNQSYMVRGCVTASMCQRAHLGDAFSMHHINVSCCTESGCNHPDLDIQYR
# B1: Antibody 11857 (antibody, human IgG1, V domains shown)
# VH: EVQLRQSGPELVKPGASVKISCKASGYTFTDYYMNWVKQSHEKSLEWIGNINPNNGGTDYNQKFKGKATLTVDKSSSTAYMELRSLTSEDSAVYYCARSYGSRFPYWGLGTLVTVSA
# VL: DIQMTQTTSSLSASLGDRVTISCRASQDITNYLSWYQQKPDGTVKLLIFYTAVLQSGFPLRFSGSGSGADYSLTISNLEQEDFATYFCQQGHTLPWTFGGGTKLEIK
# Columns and labels:
# [1] = target: T1, cynomolgus uPAR (recombinant); assay: BLI (Octet HTX); repeated row of the table
# Description: (§1) Kinetic constant ranges for Octet HTX were between 1 mM to 10 pM.
# [2] = target: T2, human uPAR (recombinant protein used in ELISA and BLI) (human, UniProt Q03405 23-305, limits assumed); assay: BLI (Octet HTX); repeated row of the table
# T2 construct: Whole entry named; also called biotinylated human uPAR
# T2 sequence (Q03405 23-305 limits assumed): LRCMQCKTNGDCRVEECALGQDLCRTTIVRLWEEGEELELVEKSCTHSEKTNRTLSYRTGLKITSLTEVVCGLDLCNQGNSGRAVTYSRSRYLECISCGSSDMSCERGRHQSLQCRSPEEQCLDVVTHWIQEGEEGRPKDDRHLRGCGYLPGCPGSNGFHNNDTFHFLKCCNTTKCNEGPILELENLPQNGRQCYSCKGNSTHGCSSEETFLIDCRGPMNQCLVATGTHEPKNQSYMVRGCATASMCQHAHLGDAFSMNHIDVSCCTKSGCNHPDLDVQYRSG
# Description: as §1
# [3] = target: T3, human uPAR displayed on the surface of MDA-MB-231 cells (human, UniProt Q03405 23-305); assay: cell-based or functional assay
# T3 sequence (Q03405 23-305): as the sequence (Q03405 23-305 limits assumed) above
# [4] = target: T2, human uPAR (recombinant protein used in …); assay: ELISA, plate-coated human uPAR
# Description: (§2) To ensure the cross-reactivity of the 12 lead candidates was maintained with the Herceptin constant region, their binding to human and cyno uPAR was evaluated by ELISA (FIG. 3A).
# (§3) Nunc MaxiSorp™ flat-bottom 96-well plates were coated with human or cyno uPAR (3.19 μg/mL) at 4° C. overnight, and plates were washed with wash buffer and blocked with 5% non-fat dry milk. A standard log serial dilution of each antibody candidate was added to the uPAR-coated plates and incubated at 4° C. overnight. Plates were washed three times and incubated with 50 μL of HRP-conjugated goat anti-human (H+L) antibody (Biorad). After a two-hr incubation, plates were washed, and 100 μL of 1-Step™ Turbo TMB-ELISA Substrate Solution (Thermo Scientific) was added to each well. The reaction was quenched with 2M H₂SO₄ for 5 min at room temperature, and the optical density of each well was measured at 450 nm using a SpectraMax190 microplate reader.
# [5] = target: T1, cynomolgus uPAR (recombinant); assay: BLI (Octet HTX)
# Description: as §1
# [6] = target: T2, human uPAR (recombinant protein used in …); assay: BLI (Octet HTX)
# Description: as §1
# [7] = target: T3, human uPAR displayed on the surface of …; assay: flow cytometry on MDA-MB-231 cells; repeated row of the table
# [8] = target: T1, cynomolgus uPAR (recombinant); assay: ELISA, plate-coated cyno uPAR
# Description: as §2, §3
# [9] = target: T3, human uPAR displayed on the surface of …; assay: flow cytometry on MDA-MB-231 cells
# [10] = target: T3, human uPAR displayed on the surface of …; assay: flow cytometry (FACS) on MDA-MB-231 cells
# From the text: Antibodies generated by immunizing animals with suPAR, which lacks the cell surface anchoring motif, can target protein regions that are not accessible for membrane-bound uPAR. […] Thus, FACS was applied to evaluate the cell-surface uPAR recognition by each antibody candidate under different concentrations of MDA-MB-231 cells, a triple-negative breast cancer cell line with high uPAR expression (FIG. 2).
# MDA-MB-231 cells were harvested with TrypleE and resuspended in FACS buffer (PBS+1% BSA) to 2×10⁶ cells/mL before being aliquoted to a 96-well plate (100 μL, 2×10⁵ cells/well). Cells were pelleted by centrifuging the microplate for 5 min at 400 RCF and resuspended in PBS containing serially diluted antibodies to a maximum concentration of 600 nM, followed by a 50 min incubation at 4° C. Cells were then washed three times with PBS and incubated with an AlexaFluor488-conjugated goat anti-human IgG for 50 min at 4° C. in the dark. Finally, cells were washed twice with FACS buffer and resuspended in 80 μL for FACS analysis in a Bio-rad S3e Cell Sorter.
binder,measurement,setting,value
B1,Kd,[1],8.48 nM
same,Kd,[2],6.37 nM
same,ADC Cytotoxicity EC50,[3],0.76 nM
same,ADC Cytotoxicity Max %,[3],35.2%
same,ADCC NK-92 EC50,[3],5.59 nM
same,ADCC NK-92 Max %,[3],27.2%
same,ADCC PBMCs EC50,[3],0.35 nM
same,ADCC PBMCs Max %,[3],52%
same,Adhesion blocking EC50,[3],940 nM
same,EC50,[4],0.52 nM
same,Kd,[5],8.48 nM
same,Kd,[6],6.37 nM
same,EC50,[7],0.545 µg/mL
same,EC50,[8],0.18 nM
same,EC50,[9],0.545 µg/mL
same,Cellular recognition Max %,[10],1940%
same,EC50,[10],2.07 nM
